Among the data in publication PMC10547193 are neutralization concentration (100% protection from CPE) of KRM1-Fc against CVA10 prototype strain Kowalik in RD cells, change of the neutralization concentration of KRM1-Fc against the mutant relative to CVA10-WT (standard neutralization assay, RD cells) and resistance to neutralization by KRM1-Fc relative to rescued CVA10-WT (neutralization assay, RD cells) values, retold here.

Assay [1] concerns the target CVA10-WT viral particles (coxsackievirus A10 prototype strain Kowalik, mature virion) (coxsackievirus A10 (strain Kowalik)).
In assay [2] the target is CVA10 escape mutant N2142D+N3183Y (coxsackievirus A10 strain Kowalik with VP2 N142D and VP3 N183Y) (coxsackievirus A10 (strain Kowalik)).
Assay [3] concerns the target CVA10-N142A viral particles (coxsackievirus A10 strain Kowalik with VP2 N142A) (coxsackievirus A10 (strain Kowalik)).

B1: human KRM1-Fc (ectodomain of human KREMEN1 fused to the Fc portion of human IgG1) (Fc fusion)
chain: APSPGLGPECFTANGADYRGTQNWTALQGGKPCLFWNETFQHPYNTLKYPNGEGGLGEHNYCRNPDGDVSPWCYVAEHEDGVYWKYCEIPACQMPGNLGCYKDHGNPPPLTGTSKTSNKLTIQTCISFCRSQRFKFAGMESGYACFCGNNPDYWKYGEAASTECNSVCFGDHTQPCGGDGRIILFDTLVGACGGNYSAMSSVVYSPDFPDTYATGRVCYWTIRVPGASHIHFSFPLFDIRDSADMVELLDGYTHRVLARFHGRSRPPLSFNVSLDFVILYFFSDRINQAQGFAVLYQAVKEELPQERPAVNQTVAEVITEQANLSVSAARSSKVLYVITTSPSHPPQTVPG
modifications: biotin (EZ-Link Sulfo-NHS-LC-LC-Biotin) in the ELISA
The molecule B1 gave a neutralization concentration (100% protection from CPE) of KRM1-Fc against CVA10 prototype strain Kowalik in RD cells in assay [1] of 12.5 nM. In addition, the change of the neutralization concentration of KRM1-Fc against the mutant relative to CVA10-WT (standard neutralization assay, RD cells) in assay [2] was above 128 times. This molecule gave a resistance to neutralization by KRM1-Fc relative to rescued CVA10-WT (neutralization assay, RD cells) in assay [3] of 64 fold.
